Measurements as given in the Immune Epitope Database (IEDB).

Tests used:
HLA-A*02:01 [1] = assay: IEDB peptide-MHC binding, cellular MHC/competitive/fluorescence; ≥ and ≤ were set here for values at or beyond the usual limits of such assays
HLA-A*02:06 [2] = assay: as above
HLA-A*02:02 = assay: as above
HLA-A*68:02 [3] = assay: as above
HLA-A*02:03 = assay: IEDB peptide-MHC binding, purified MHC/competitive/radioactivity; ≥ and ≤ were set here for values at or beyond the usual limits of such assays
HLA-A*02:06 [4] = assay: as above; conditions: source organism: Vaccinia virus WR
HLA-A*02:01 [5] = assay: as above
HLA-A*68:02 [6] = assay: as above
[7] = source organism: Vaccinia virus WR
[8] = source organism: Influenza A virus

| Sequence | IC50 (HLA-A*02:01 [1]; [7]) [µM] | IC50 (HLA-A*02:06 [2]; [7]) [µM] | IC50 (HLA-A*02:02; [7]) [µM] | IC50 (HLA-A*68:02 [3]; [7]) [µM] | IC50 (HLA-A*02:03; [7]) [µM] | IC50 (HLA-A*68:02 [6]; [7]) [µM] | also measured |
| --- | --- | --- | --- | --- | --- | --- | --- |
| RLLKNMKQCT | 9.76 | 11.9 | 46.8 | ≥ 70 | 3.14 |  |  |
| KLYIALCKVT |  | 6.36 | 7.11 | 18.6 | 0.625 |  |  |
| NTLISSDGA |  | 49.3 | 7.41 | 25.4 | 3.57 |  |  |
| QVKELGIAI | 10.7 |  | 9.05 | 7.56 | 0.882 |  | IC50 (HLA-A*02:06 [4]): 3.71 µM |
| ITNILGGVL | ≥ 70 | 32.5 | 7.38 | 9.24 | 2.44 |  |  |
| LISSDGARVI | 12.7 | 34.9 | 7.18 | 17.9 | 1.15 |  |  |
| CIVAAVIIM |  | 32.7 | 14.3 |  | 1.42 | 4.44 | IC50 (HLA-A*02:01 [5]; [7]): 1.57 µM |
| FLKVPAQNA |  |  |  |  |  |  | IC50 (HLA-A*02:01 [1]; [8]): 11.3 µM; IC50 (HLA-A*02:06 [2]; [8]): ≥ 70 µM; IC50 (HLA-A*02:02; [8]): 6.66 µM; IC50 (HLA-A*68:02 [3]; [8]): 29 µM; IC50 (HLA-A*02:03; [8]): 0.838 µM |
| ELENKKVEYV | 35.5 | ≥ 70 | 21.4 | ≥ 70 | 3.65 |  |  |
| SVKYYGRST | 25.9 | 19.5 | 6.79 | 30.7 | 1.16 |  |  |
| VIRHVDGKI | 43.3 | 9.27 | 8.55 |  | 0.978 | 1.45 |  |
| VIRNEVNDT | ≥ 70 | ≥ 70 | 19.9 | 28.3 | 0.82 |  |  |
| LTQVKELGIA | 39.2 |  | 11.8 | 13.4 | 0.15 |  | IC50 (HLA-A*02:06 [4]): 0.018 µM |
| RVNHAKYMVT | 39 | 9.34 | 33.6 |  | 1.05 | 0.544 |  |
| DAMIHKTYI | 8.17 | 9.56 | 5.42 |  | 1.52 | 0.087 |  |
| ETMYLTMKA | 19.1 | 12.7 | 7.85 |  | 0.942 | 0.00064 |  |
| GALYLGHSA | 22.6 |  | 7.5 | 12.8 | 1.9 |  | IC50 (HLA-A*02:06 [4]): 0.792 µM |

| Sequence | IC50 (HLA-A*02:01 [1]; [7]) [µM] | IC50 (HLA-A*02:06 [2]; [7]) [µM] | IC50 (HLA-A*02:02; [7]) [µM] | IC50 (HLA-A*68:02 [3]; [7]) [µM] | IC50 (HLA-A*02:03; [7]) [µM] | IC50 (HLA-A*68:02 [6]; [7]) [µM] | also measured |
| --- | --- | --- | --- | --- | --- | --- | --- |
| VNPTLLFLKV |  |  |  |  |  |  | IC50 (HLA-A*02:06 [2]; [8]): 16.4 µM; IC50 (HLA-A*02:02; [8]): 6.37 µM; IC50 (HLA-A*02:01 [5]; [8]): 3.73 µM; IC50 (HLA-A*02:03; [8]): 2.81 µM; IC50 (HLA-A*68:02 [6]; [8]): 0.024 µM |
| ITPNNLNKI | 33.5 |  | 14.6 | 13.4 | 0.876 |  | IC50 (HLA-A*02:06 [4]): 0.409 µM |
| RTEIIRMMESA |  |  |  |  |  |  | IC50 (HLA-A*02:01 [1]; [8]): ≥ 70 µM; IC50 (HLA-A*02:06 [2]; [8]): ≥ 70 µM; IC50 (HLA-A*02:02; [8]): 8.29 µM; IC50 (HLA-A*02:03; [8]): 4.47 µM; IC50 (HLA-A*68:02 [6]; [8]): 4.32 µM |
| RTWKVLSIM |  | 33.9 | 19.1 |  | 2.63 | 4.13 | IC50 (HLA-A*02:01 [5]; [7]): 0.84 µM |
| DLKHATDYIA | 16.3 |  | 8.76 | 9.31 | 2.96 |  | IC50 (HLA-A*02:06 [4]): 1.05 µM |
| HANNSTDTV |  |  |  |  |  |  | IC50 (HLA-A*02:01 [1]; [8]): 24 µM; IC50 (HLA-A*02:06 [2]; [8]): 55 µM; IC50 (HLA-A*02:02; [8]): 8.32 µM; IC50 (HLA-A*02:03; [8]): 4.32 µM; IC50 (HLA-A*68:02 [6]; [8]): 0.168 µM |
| LVITYCLVT |  | 8.01 | 6.98 | 5.75 | 3.25 |  | IC50 (HLA-A*02:01 [5]; [7]): 1.33 µM |
| TAIRAGYSIV | 26.2 | 8.59 | 6.82 |  | 0.072 | 1.05 |  |
| KTRLFRSPQV | 7.06 |  | 9.27 | 6.21 | 0.984 |  | IC50 (HLA-A*02:06 [4]): 0.433 µM |
| EIRGVLPEET | 30.5 | 20.1 | 9.6 |  | 4.87 | 4.54 |  |
| NIKPVIVPDI | ≥ 70 |  | 10.3 | 9.46 | 0.745 |  | IC50 (HLA-A*02:06 [4]): 0.945 µM |
| NTKSDNIINI | ≥ 70 | ≥ 70 | 30.8 |  | 1.08 | 0.101 |  |
| IVQSVLRDI | 47.3 |  | ≥ 70 | 47.8 | 0.101 |  | IC50 (HLA-A*02:06 [4]): 1.31 µM |
| EAFETQSGAL | 14.2 | 15 | 8.56 |  | 0.995 | 0.068 |  |
| DINVIGLIV |  | 5.53 | 9.8 |  | 4.04 | 2.27 | IC50 (HLA-A*02:01 [5]; [7]): 0.387 µM |
| SIGFEARIV | 7.3 |  | 10.1 | 19.2 | 0.575 |  | IC50 (HLA-A*02:06 [4]): 1.31 µM |
| LTKDRKMLEL |  | 20.8 | 7.7 |  | 0.133 | 4.84 | IC50 (HLA-A*02:01 [5]; [7]): 3.43 µM |
